Reference: IntAct's records for PubMed 29039417

B1: BBSome complex member BBS5 (Homo sapiens), Q8N3I7 (parent)
chain: MSVLDALWEDRDVRFDLSAQQMKTRPGEVLIDCLDSIEDTKGNNGDRGRLLVTNLRILWHSLALSRVNVSVGYNCILNITTRTANSKLRGQTEALYILTKCNSTRFEFIFTNLVPGSPRLFTSVMAVHRAYETSKMYRDFKLRSALIQNKQLRLLPQEHVYDKINGVWNLSSDQGNLGTFFITNVRIVWHANMNDSFNVSIPYLQIRSIKIRDSKFGLALVIESSQQSGGYVLGFKIDPVEKLQESVKEINSLHKVYSASPIFGVDYEMEEKPQPLEALTVEQIQDDVEIDSDGHTDAFVAYFADGNKQQDREPVFSEELGLAIEKLKDGFTLQGLWEVMS
partner: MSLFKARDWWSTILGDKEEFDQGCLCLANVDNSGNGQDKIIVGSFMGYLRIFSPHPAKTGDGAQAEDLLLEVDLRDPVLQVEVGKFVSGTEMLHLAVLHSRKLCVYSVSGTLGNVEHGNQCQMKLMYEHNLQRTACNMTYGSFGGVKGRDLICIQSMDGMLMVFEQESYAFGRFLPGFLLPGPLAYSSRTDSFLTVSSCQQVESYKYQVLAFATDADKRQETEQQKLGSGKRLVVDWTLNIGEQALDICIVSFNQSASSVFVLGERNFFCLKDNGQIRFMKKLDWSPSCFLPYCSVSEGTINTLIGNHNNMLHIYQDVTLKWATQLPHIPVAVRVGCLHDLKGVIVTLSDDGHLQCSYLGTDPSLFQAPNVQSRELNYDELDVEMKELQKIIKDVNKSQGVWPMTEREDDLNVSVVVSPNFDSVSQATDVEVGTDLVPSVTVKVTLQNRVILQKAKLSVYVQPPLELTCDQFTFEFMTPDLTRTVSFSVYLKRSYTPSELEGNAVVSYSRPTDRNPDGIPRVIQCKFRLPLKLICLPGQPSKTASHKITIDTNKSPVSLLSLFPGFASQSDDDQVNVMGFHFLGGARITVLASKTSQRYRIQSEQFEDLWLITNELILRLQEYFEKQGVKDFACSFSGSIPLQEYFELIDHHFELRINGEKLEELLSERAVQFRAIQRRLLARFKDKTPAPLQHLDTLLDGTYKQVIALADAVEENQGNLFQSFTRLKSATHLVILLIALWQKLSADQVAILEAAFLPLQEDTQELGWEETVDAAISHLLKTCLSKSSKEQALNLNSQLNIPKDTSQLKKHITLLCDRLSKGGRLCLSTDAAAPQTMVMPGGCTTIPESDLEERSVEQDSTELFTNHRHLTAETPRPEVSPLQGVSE

Variants of: B1
Conditions: with pthb1_human BBS9, Q3SYG4

Variant	effect of a mutation on the interaction
S196E	with no effect
S196K	with no effect
F197A	with no effect
F197E	with no effect
F197K	with no effect
N198A	with no effect
N198E	with no effect
N198K	with no effect
V199A	with no effect
V199E	with no effect
V199K	with no effect
S200A	with no effect
S200E	with no effect
S200K	with no effect
I201A	with no effect
I201E	with no effect
I201K	with no effect
P202A	with no effect
P202E	with no effect
P202K	with no effect
Y203A	with no effect
Y203E	with no effect
Y203K	with no effect

Variant	effect of a mutation on the interaction
L204A	with no effect
L204E	with no effect
L204K	with no effect
Q205A	with no effect
Q205E	with no effect
Q205K	with no effect
I206A	with no effect
I206E	with no effect
I206K	with no effect
R207A	with no effect
R207E	with no effect
R207K	with no effect
S208A	with no effect
S208E	with no effect
S208K	with no effect
I209A	with no effect
I209E	with no effect
I209K	with no effect
K210A	with no effect
K210E	with no effect
I211A	with no effect
I211E	with no effect
I211K	with no effect

Variant	effect of a mutation on the interaction
R212A	with no effect
R212E	with no effect
R212K	with no effect
D213A	with no effect
D213E	with no effect
D213K	with no effect
S214A	with no effect
S214E	with no effect
S214K	with no effect
K215A	with no effect
K215E	with no effect
F216A	with no effect
F216E	with no effect
F216K	with no effect
G217A	with no effect
G217D	disrupting interaction strength
G217E	with no effect
G217K	with no effect
L218A	with no effect
L218E	with no effect
L218K	with no effect
A219E	with no effect
A219K	with no effect

Variant	effect of a mutation on the interaction
L220A	with no effect
L220E	with no effect
L220K	with no effect
V221A	with no effect
V221E	with no effect
V221K	with no effect
I222A	with no effect
I222E	disrupting interaction strength
I222K	with no effect
E223A	with no effect
E223K	with no effect
S224A	with no effect
S224E	with no effect
S224K	with no effect
S225A	with no effect
S225E	with no effect
S225K	with no effect
Q226A	with no effect
Q226E	with no effect
Q226K	with no effect
Q227A	disrupting interaction strength
Q227E	with no effect
